According to the nanobody polyreactivity screen of Harvey et al. (2022):

Test: yeast display, Sf9 membrane polyspecificity reagent, FACS + sequencing; frameworks hold sequencing errors
Outline: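 After 36–48 hours of galactose induction, yeast (Saccharomyces cerevisiae BJ5465) displaying a synthetic nanobody library were stained at 4 °C for 1 hour with 10% biotinylated, detergent-solubilized Sf9 membrane reagent. Streptavidin microbeads enriched the stained cells before FACS sorting into low and high (top ~1%) gates on anti-HA and streptavidin fluorescence. Each clone's polyreactivity label reflects its gate of origin.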
In the case of “QVQLVESGGGLVQAGGRLRLSCAASGFTCGVYDMGWYRQAPGKERALVADIDFTGGDTYYADSVKGRFTISRDNAKNTVYLQMIRLKPEDTAVYYCAARSWGVIYDYFYLGLDYWGQGTQVTVSS”, the “polyreactivity (PSR sort gate)” value is reported as “low polyreactivity”. With “QVQLVESGGGLVQAGGSLRLSCAASGSIFSYYVMGWYRQAPGKERELVAAITSSGGSTYYADSVKGRFTISRDNAKNTVYLQMNSLKPEDTAVYYCAAYQRSQYRSYPGYEYWGQGTQVTVSS” the “polyreactivity (PSR sort gate)” value was “high polyreactivity”. With “QVQLVESGGGLVQAGGNLRLSCAASGGIFYLYAMGWYRPAPGKERELVASINWRSATTYYADSVKGRFTISRDNAKNTVYLQMNSLKPEDTAVYYCNVQWYGGYDYWGQGSQVTVSS” the “polyreactivity (PSR sort gate)” value was “low polyreactivity”. For “QVQLVESGGGLVQAGGSHRLSCAASGRTFYSYPMGWYRQAPGKEREIVAAIHWSGTTTYADSVKGRFTISRDNAKNTVYLEMNSLKPDATAVYYCAADRVSYIGAGWFDYWGQGTQVTVSS”, the “polyreactivity (PSR sort gate)” value was “high polyreactivity”. For “QVQLVESGGGLVQAGGSLRLSCAASGITFTFYAMGWYRQAPGKERELVAAISRRGGSTYYADSVKGRFTISRDNAKNTVYLQMNSLKPEDTAVYYCAARGYRPMDYWGHGTQVTVSS”, the “polyreactivity (PSR sort gate)” value was “high polyreactivity”. With “QVQLVESGGGLVQAGGSLRLSCAAYGSTFSLNTMGWYRQAPGKERELVAAITSGGSTNYADSVKGRFTISRDNAKNTVYLQMNSLKPEDTSVYYCAATPGRGGGYNYWGQGTQVTVSS” the “polyreactivity (PSR sort gate)” value was “low polyreactivity”. In the case of “QVQLVESGGGLVQAGGSLRLSCAASGSTFGYYAMGWNRQAPGKERELVATITWSGGSTNYADSVKGRFTISRDNAKNTVYLQMYSLKPEDTAVYYCAADLKYWYFGLAFIEVDYWGQGTQVTVSS”, the “polyreactivity (PSR sort gate)” value is reported as “low polyreactivity”. For “QVQLGESGGGLVQAGGSLRLSCAASGSIFQKYTMGWYRQAPGKERELVAAITRSGGSTYYADSVKGRFTISRDNAKNTVDFQMNSLKPEDTAVYYCAAPAAGDEYDYWGQVTQVTVSS”, the “polyreactivity (PSR sort gate)” value was “high polyreactivity”. In the case of “QVQLVESGGGLVQAGGSLRLSCAASGSTFWKYAMGWYRQAPGKERELVARISRNGGSTYYADSVKGRFTISRDNAKNTVYLQMNSLKPEDTAVYYCATAYVHYVYKYDYWGQGTQVTVSS”, the “polyreactivity (PSR sort gate)” value is reported as “high polyreactivity”. With “QDQLVESGGGLVQAGGSLRLSCAASGRTFASYAMGWYRQAPGKERELVAAITSSGGRTYYADSVKGRFTISRDYAKNTVYLQMNSLKPEVTAVYYCAVRGTKGYGYWGQGTQVTVSS” the “polyreactivity (PSR sort gate)” value was “high polyreactivity”. In the case of “QVQLVESGGGLVQAGGSLRLSCAASGRTFRPYAMGWYRQAPGKERELVAAISQSVGSTYYADSVKGRFTISRDNAKNTVYLQMNSLKPEDTAVYYCAADRWSATHYVWYDYWGQGTQVTVSS”, the “polyreactivity (PSR sort gate)” value is reported as “high polyreactivity”. In the case of “QVQLVESGGGLVQAGGSLRLSCAASGFTLYSNTMGWYRQATGKERELVAAINYSGGSTYYADSVKGRFTISRDNAKNTVYLQMNSLKPEDTPVYYCATDLHWLVTKYGYWGQGTQVTVSS”, the “polyreactivity (PSR sort gate)” value is reported as “low polyreactivity”. In the case of “QVQLVESGGGLVQAGGSLRLSCAASGFIYGGNPRGWYRQAPGKERELVAANRSGGSTYYADSVKGRFTISRDNAKNTVYLQMNILKPEDTAVYYCAVRLRYAYRARGNYWGQGTQVTVSS”, the “polyreactivity (PSR sort gate)” value is reported as “low polyreactivity”. With “QVQLVESGGGLVQAGGSLRLSCAASGRIFDYNAMGWYRQAPGKERELVAAINSGGSTYADSVKGRFTISRDNAKNTVYLQMNSLKPEDTAVYYCAKSLGQTDWEYDSWGQGTQVTVSS” the “polyreactivity (PSR sort gate)” value was “low polyreactivity”. With “QVQLVESGGGLVQAGGSLRLSCAASGSIFGGNAMGWYRQAPGKEREFVARITKRGGSTDYADSVKGRFTISRDNAKNTVYLQMNSLKPEDTAVYYCATGWTSKVHYRYGYWGQGTQVTVSS” the “polyreactivity (PSR sort gate)” value was “high polyreactivity”. For “QVQLVDSGGGLVQAGGSLRLICAASGSTFNYYAMGSYRQAPGKERELVAAISYSSGRTYYADSVKGRFTISRDNSKNTVYLQMNSMKPEDTAVYYCAADRYMVSSSVHSFGYWGQGTQVTVSS”, the “polyreactivity (PSR sort gate)” value was “high polyreactivity”. In the case of “QVQLVESGGGLVQAGGSLRLSCAASGFIFVKYVMGWYRQAPGKERELVATITNGVSTNYADSVKGRFTISRDNAKNTVYLQMNSLKPEDTAVYYCNTGSNAWYFSGDYWGQGTQVTVSS”, the “polyreactivity (PSR sort gate)” value is reported as “low polyreactivity”. With “QVQLVESGGGLVQAGGSLRLSCAASGSIFVKYAMGWYRQAPGKERELVAAISRNGGSTYYADSVKGRFTISRDNAKNTVYLQMNSLKPEDTAVYYCNKVRPGWTYEYGYWGQGTQVTVSS” the “polyreactivity (PSR sort gate)” value was “high polyreactivity”. With “QVQLVESGGGLVQAGGSLRLSCAASGIIFHYYAMGWYRQAPVKERELVAVITSGGSTNYADSVKGRFTISRDNAKNTVYLQMNSLKPEDTAVYYCAADPIRDSWWQYFQDGREYDYWGQGTQVTVSS” the “polyreactivity (PSR sort gate)” value was “low polyreactivity”. With “QVQLVESGGGLVQAGGSLRLSCAACGSTFDVNARGWYRQAPGKERELVAAISWSDDDTYYADSVKGRFTISRDNAKNTDYLQKHSLKPEDTAVYYCAADGRYGWYYGVYNGEDYWGQGTQVTVSS” the “polyreactivity (PSR sort gate)” value was “high polyreactivity”. For “QVQLVESGGGLVQAGGSLRLSCAASGITFIGYVMGWYRQAPGKERELVAAISRSGASTYYADSVKGRFTISRDNAKNTVYLQMNSLKPEDTAVYYCATVRYHPAYYYWGQGTQVTVSS”, the “polyreactivity (PSR sort gate)” value was “high polyreactivity”. For “QVQLVESGGGLVQAGGNLRLSCAASGFIFTRYAMGWYRQAPGKERELVAAISTSGDRTYYADSVKGRFTISRDNAKNTVYLQMNSLKPEDTAVYYCATSKSYSSKLYDYWGQGTQVTVSS”, the “polyreactivity (PSR sort gate)” value was “high polyreactivity”. For “QDQLVESGGGLVQAGGSLSLSCAASGSIFFRNVMGWYRQAPGKERELVAAISGSGGRTYNADSVKGRFTISRDNAKNTVYLQMNSLKPEDTAVYYCYADYWSRRDDHDYWGQGTQVSVSS”, the “polyreactivity (PSR sort gate)” value was “high polyreactivity”. For “QVHLVESGGGLVQAGGSLRLTCAASGFTFHQYAMGWYRQAPGKERELVAAISQSGDSTYYADSVKGRFTISRDNSKNTVYLQMNSLKQEYTAVYYFNADNDGVVWSDPFDFDYWGQGTQVTVSS”, the “polyreactivity (PSR sort gate)” value was “low polyreactivity”. For “QVQLVESGGGLVKAGGSLRLSCAASGSIFQSNAMGWYRQAPGKERELVAAIRTSSGGGTYADSVKGRFTISRDNAKNTVYLQINSLKPEDTAVYDCNARKNNGGKWGYDYWGQGTQVTVSS”, the “polyreactivity (PSR sort gate)” value was “high polyreactivity”. For “QVQLVESGGGLVKAGGSIRISCAPSGRIFNQYGIGRNRQAPGKEMELVDAIRSGDSTNYADSVKGRFTISRDNAKNTFYLQMNRLKPEDTAVYFCARDRPGDYAGSDYWGQGTQVTVSS”, the “polyreactivity (PSR sort gate)” value was “low polyreactivity”. For “QVQLVESGGGLVQAGGSLRLSCAASGRIFTYYTMGGYRQAPGKERELVATINSSGGSTYYADSVKGRFTISRDNAKNTVYLQMNRLKPEDTAVYYCNDAYKSQVRYRRYNYWGQGTQVTVSS”, the “polyreactivity (PSR sort gate)” value was “high polyreactivity”. In the case of “QVQLVKSGGGLVQAGGSLRVSCAATGRIYTDNAMGWYRQATGKERELVAGMSSSGGRTYYADSVKGRFTISRDNAKNSVFFQMNSLLTEATAVYYCAAANSRRDGRYYWGQGTQVSVSS”, the “polyreactivity (PSR sort gate)” value is reported as “high polyreactivity”. With “QVQLVESGGGLVQAGGSLRLSCAASGSTIYTYVMGWYRQAPGKERELVAAISWSGSSTYYADSVKGRFTISRDNAKNTVYLQMNSLKPEDTAVYYCNAQYRRGWWGVEYGYWGQGTQVTVSS” the “polyreactivity (PSR sort gate)” value was “low polyreactivity”. With “QVQLVESGGGLVQAGGSLRLSCAASGLTFYRYAMGWYRQAPGKERELVAAIRVSGNTYYADSVKGRFTISRDNAKNTVYLQMNSLKPEDTAVFYCAAIPYYFYGMDYWGQGTQVTVSS” the “polyreactivity (PSR sort gate)” value was “high polyreactivity”. With “QVQLVESGGGLVQAGGSLRLSCAASGIIFGTNAMGWYRQAPGKERELVAGITSSGDSTYYADSVKGRFTISRDNAKNTVYLQMNSLKPEDTAVYYCARDIRTREFDSWGQGTQVTVSS” the “polyreactivity (PSR sort gate)” value was “low polyreactivity”. In the case of “QVQLVESGGGLVQAGGSLRLSCAASGFIFQTNVMGWYRQAPGKERELVAAISSGDSTYYADSVKGRFTISRDNAKNTVYLQMNSLKPEDTAVYYCAADSIRTLLTGNTVYIWYGYWGQGTQVTVSS”, the “polyreactivity (PSR sort gate)” value is reported as “low polyreactivity”. For “QVQLVESGGGLVQAGGSLRLSCAASGSIFKKYAMVWYRQAPGKERELVAAITRGTYYADSVKGRFTISRDNAKNTVYLQMNSLKPEDTAVYFCNREYWGRGYYRVRGEYDYWGQGTQVTVSS”, the “polyreactivity (PSR sort gate)” value was “low polyreactivity”. With “QVQLVESGGGLVQAGGSLRLSCAASGSIFAYNDMGWYRQAPGKERELVAAIRNGGRTNYADSVKGRFTISRDNAKNTVYLQMNSLKPEDTAVDYWAALNYYGSDYWGQGTQVTVSS” the “polyreactivity (PSR sort gate)” value was “high polyreactivity”. With “QVQLVESGAGLVQAGGSLRLSCAASGSIFYYYAMGWYRQAPGKEREFVAAIRESGGSTYYADSVKGRFTISRDNAKNTVYLQMNSLKPEDTAVYYCAVRRPRRNYNYPYDYWGLGTQVTVSS” the “polyreactivity (PSR sort gate)” value was “low polyreactivity”. For “QVQLVESGGGLVQAGGSLRLSCAASGSISAPNAMGWYRQAPGKERELVATINSGGRTNYADSVKGRFTISRDNSKNTVYLQMNSLKPEDTAVYYCNTVFRGAYTYGDVSKYDYWGQGTQVTVSS”, the “polyreactivity (PSR sort gate)” value was “low polyreactivity”. For “QVQLVESGGGLVQAGGSRRLSCAASGITFGWYAMGWYRQAPGKEMEWVATISQSGTSTYYADSVKGRFTISRDNAKNTVYLKMISLKPEDTAFYYCAADYIRGYYFRVRLEVDYWGQGTQVTVSS”, the “polyreactivity (PSR sort gate)” value was “low polyreactivity”. With “QVQLVDSGGGLVQAGGSLSLSCAASGSTFKHYAMGWYRQAPGKERELVAAISSRGGSTHYADSVKGRFTISRDNAKNTVYLQMNSLKPEDTAVYYCARDTDTLSSRSSDYDYWGQGTQVTVSS” the “polyreactivity (PSR sort gate)” value was “low polyreactivity”. In the case of “QVQLVESGGGLVQAGGSLRLSCAASGLIFVINAMGWYRQAPGKERELVATISSGVSTNYADSVKGRFTISRDNAKNTVYLQMNSLKPEDTAVYYCNAPEITYYYAPWETKIYDYWGQGTQVTVSS”, the “polyreactivity (PSR sort gate)” value is reported as “low polyreactivity”. With “QVQLVESGGGLVQAGGSLRLSCAASGRTFARYDKGWYRQAPGKERELVAGINGDGGSTNYADSVKGRFTISRDNAKNTVYLQMNSLKPEDTAVFYCNVDQEDRKLHVSIKQLSDHWGQGTQVTVSS” the “polyreactivity (PSR sort gate)” value was “low polyreactivity”. With “QVQLVESGGGLVQAGGSLRLSCAASGSIFDHYTMGWYRQAPGKERELVARISSRGGSTYYADSVKGRFTISRDNAKNTVYLQMNSLKPEDTAVYYCAAYKKLLYYKFGSWGQGTQVTVSS” the “polyreactivity (PSR sort gate)” value was “high polyreactivity”. With “QVQLQERGGGLVQAGGSLRQSCAAIGYIFPYYSMGWYRQATGKERGLVACIAAGTTTNYADSVKGRFTISRDNAINTVYLQMNSLKPEDAAVYYCAALNAFKTGHWYWGQGTQVTVSS” the “polyreactivity (PSR sort gate)” value was “low polyreactivity”. With “QFQLVESGGGLVQAGGSLSLSCAASGSTFSFNARGSYRQAPGKERELVAAITSGGSTYYADSVKGRFTISRDNAKNTVYLQMNSLKPEDTAVYYCAAAWAYGFGTRRYYWGQGTQVTVSS” the “polyreactivity (PSR sort gate)” value was “high polyreactivity”.
